Results published in patent US20200392198A1 (UNIVERSITY OF COPENHAGEN, published 2020).
Ends that are not written are not given here. * marks the point of attachment. Palmitoyl = CCCCCCCCCCCCCCCC(=O)*; Lauroyl = CCCCCCCCCCCC(=O)*

Biological target: T1, human GLP-2 receptor (human, UniProt O95838 1-553)
T1 sequence (looked up): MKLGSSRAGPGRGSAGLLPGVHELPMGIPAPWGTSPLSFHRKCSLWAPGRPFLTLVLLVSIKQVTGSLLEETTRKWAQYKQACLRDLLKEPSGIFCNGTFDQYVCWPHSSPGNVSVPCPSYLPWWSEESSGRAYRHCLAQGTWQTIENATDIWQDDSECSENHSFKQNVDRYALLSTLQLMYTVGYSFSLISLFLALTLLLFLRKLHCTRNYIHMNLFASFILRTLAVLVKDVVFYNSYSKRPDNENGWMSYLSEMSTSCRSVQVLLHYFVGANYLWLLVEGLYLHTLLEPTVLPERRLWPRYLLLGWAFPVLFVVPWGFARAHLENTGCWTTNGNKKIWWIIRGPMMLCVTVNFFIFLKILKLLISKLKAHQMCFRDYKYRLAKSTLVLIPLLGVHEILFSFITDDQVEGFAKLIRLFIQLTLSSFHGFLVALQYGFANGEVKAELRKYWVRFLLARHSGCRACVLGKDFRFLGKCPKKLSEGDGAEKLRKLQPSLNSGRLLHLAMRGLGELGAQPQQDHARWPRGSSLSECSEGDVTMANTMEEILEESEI
Assay: cell-based or functional assay

Question: For HADGTFISDYSTILDNLAARDFINWLIQTKITK (C12 acyl group on Lys 33 (K(C12/33), 'with C12 pos 33')) [GIP-GLP-2 co-agonist 32], which “EC50 (cAMP)” value is on record?
Answer: Its value is 6.2 nM.

Question: And the “Emax (10 µM), % of native GLP-2” value?
Answer: The value was 91%.

Question: What about the “fold (EC50 vs native GLP-2)” value of the same binder?
Answer: The value was 5.1 fold.

Question: What about the “logEC50 (cAMP)” value of the same binder?
Answer: Its value is -8.21.

Question: How did the “EC50 (cAMP)” value turn out when HADGTFISDYSTILDNLAARDFINWLIQTKITK (C16 acyl group on Lys 33 (K(c16/33), 'with C16 pos 33')) [GIP-GLP-2 co-agonist 33] was run?
Answer: Its value is 13 nM.

Question: And the “Emax (10 µM), % of native GLP-2” value?
Answer: The value was 82%.

Question: What about the “fold (EC50 vs native GLP-2)” value of the same binder?
Answer: The value was 11 fold.

Question: And the “logEC50 (cAMP)” value?
Answer: The value was -7.89.

Question: Which “EC50 (cAMP)” value does the source give for HADGTFISDYSTILDNLAARDFINWLIQTKGK(Lauroyl)K [GIP-GLP-2 co-agonist 35] here?
Answer: Its value is 2.3 nM.

Question: And the “Emax (10 µM), % of native GLP-2” value?
Answer: The value was 68%.

Question: What about the “fold (EC50 vs native GLP-2)” value of the same binder?
Answer: Its value is 1.9 fold.

Question: And the “logEC50 (cAMP)” value?
Answer: Its value is -8.63.

Question: With HADGTFISDYSTILDNLAARDFINWLIQTKGK(Palmitoyl)K [GIP-GLP-2 co-agonist 36] as the binder, how does the “EC50 (cAMP)” value read?
Answer: The value was 20 nM.

Question: What about the “Emax (10 µM), % of native GLP-2” value of the same binder?
Answer: Its value is 71%.

Question: And the “fold (EC50 vs native GLP-2)” value?
Answer: The value was 17 fold.

Question: What about the “logEC50 (cAMP)” value of the same binder?
Answer: The value was -7.7.

Question: Which “EC50 (cAMP)” value does the source give for HADGTFISDYSTILDNLAARDFINWLIQTKGKKNDWKHNITQ [GIP-GLP-2 co-agonist 34] here?
Answer: The value was 1.2 nM.

Question: And the “Emax (10 µM), % of native GLP-2” value?
Answer: The value was 94%.

Question: What about the “fold (EC50 vs native GLP-2)” value of the same binder?
Answer: Its value is 0.96 fold.

Question: What about the “logEC50 (cAMP)” value of the same binder?
Answer: The value was -8.94.

Biological target: T2, human GIP receptor (human, UniProt P48546 22-466)
T2 sequence (looked up): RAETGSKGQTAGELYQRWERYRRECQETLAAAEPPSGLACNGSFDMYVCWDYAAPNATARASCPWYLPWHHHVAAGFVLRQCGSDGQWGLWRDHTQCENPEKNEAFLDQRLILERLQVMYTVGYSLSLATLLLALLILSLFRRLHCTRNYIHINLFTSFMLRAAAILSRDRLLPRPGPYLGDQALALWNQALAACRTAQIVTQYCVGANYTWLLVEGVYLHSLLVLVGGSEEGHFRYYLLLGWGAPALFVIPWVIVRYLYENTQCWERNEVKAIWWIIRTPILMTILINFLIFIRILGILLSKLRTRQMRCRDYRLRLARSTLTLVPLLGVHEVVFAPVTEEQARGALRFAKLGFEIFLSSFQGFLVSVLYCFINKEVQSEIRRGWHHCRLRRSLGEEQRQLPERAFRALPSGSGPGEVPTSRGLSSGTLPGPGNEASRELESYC
Assay: cell-based or functional assay

Question: Which “EC50 (cAMP)” value does the source give for HADGTFISDYSTILDNLAARDFINWLIQTKITK (C12 acyl group on Lys 33 (K(C12/33), 'with C12 pos 33')) [GIP-GLP-2 co-agonist 32] here?
Answer: The value was 0.15 nM.

Question: What about the “Emax (10 µM), % of native GIP” value of the same binder?
Answer: Its value is 100%.

Question: What about the “fold (EC50 vs native GIP)” value of the same binder?
Answer: Its value is 1.7 fold.

Question: What about the “logEC50 (cAMP)” value of the same binder?
Answer: Its value is -9.81.

Question: HADGTFISDYSTILDNLAARDFINWLIQTKITK (C16 acyl group on Lys 33 (K(c16/33), 'with C16 pos 33')) [GIP-GLP-2 co-agonist 33] was tested. Which “EC50 (cAMP)” value did it give?
Answer: Its value is 0.32 nM.

Question: And the “Emax (10 µM), % of native GIP” value?
Answer: Its value is 100%.

Question: And the “fold (EC50 vs native GIP)” value?
Answer: The value was 3.6 fold.

Question: And the “logEC50 (cAMP)” value?
Answer: Its value is -9.5.

Question: Which results are given for HADGTFISDYSTILDNLAARDFINWLIQTKGK(Lauroyl)K [GIP-GLP-2 co-agonist 35]?
Answer: EC50 (cAMP): 0.48 nM; Emax (10 µM), % of native GIP: 99%; fold (EC50 vs native GIP): 5.4 fold; logEC50 (cAMP): -9.32

Question: Which “EC50 (cAMP)” value does the source give for HADGTFISDYSTILDNLAARDFINWLIQTKGK(Palmitoyl)K [GIP-GLP-2 co-agonist 36] here?
Answer: Its value is 0.79 nM.

Question: What about the “Emax (10 µM), % of native GIP” value of the same binder?
Answer: The value was 100%.

Question: And the “fold (EC50 vs native GIP)” value?
Answer: The value was 8.9 fold.

Question: And the “logEC50 (cAMP)” value?
Answer: Its value is -9.1.

Question: HADGTFISDYSTILDNLAARDFINWLIQTKGKKNDWKHNITQ [GIP-GLP-2 co-agonist 34] was tested. Which “EC50 (cAMP)” value did it give?
Answer: The value was 0.1 nM.

Question: What about the “Emax (10 µM), % of native GIP” value of the same binder?
Answer: Its value is 100%.

Question: What about the “fold (EC50 vs native GIP)” value of the same binder?
Answer: Its value is 1.1 fold.

Question: What about the “logEC50 (cAMP)” value of the same binder?
Answer: The value was -10.
